Results from US20120077731A1 (Ablynx, published 2012).

Tests used:
Human plasma sIL-6R [1] = biological target: T1, Human plasma sIL-6R (human, UniProt P08887 20-355, limits assumed); experiment: plasma potency ELISA, human plasma, high IL-6 (EC95)
T1 construct: also called plasma-derived human IL-6R
T1 sequence (looked up): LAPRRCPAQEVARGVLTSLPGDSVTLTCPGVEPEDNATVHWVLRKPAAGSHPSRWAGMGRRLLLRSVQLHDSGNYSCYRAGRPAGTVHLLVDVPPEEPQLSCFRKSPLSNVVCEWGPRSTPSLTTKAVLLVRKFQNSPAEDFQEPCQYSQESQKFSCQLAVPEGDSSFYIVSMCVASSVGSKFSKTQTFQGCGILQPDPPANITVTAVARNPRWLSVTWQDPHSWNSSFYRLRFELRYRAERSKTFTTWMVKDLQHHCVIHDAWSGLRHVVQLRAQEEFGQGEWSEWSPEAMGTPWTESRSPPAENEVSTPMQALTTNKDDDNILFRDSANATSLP

gp130/Fc = biological target: T2, gp130/Fc (UniProt P40189 23-619); experiment: competitive binding ELISA, similar setup (results not shown)
T2 construct: not shown: Fc part, not described
T2 sequence (looked up): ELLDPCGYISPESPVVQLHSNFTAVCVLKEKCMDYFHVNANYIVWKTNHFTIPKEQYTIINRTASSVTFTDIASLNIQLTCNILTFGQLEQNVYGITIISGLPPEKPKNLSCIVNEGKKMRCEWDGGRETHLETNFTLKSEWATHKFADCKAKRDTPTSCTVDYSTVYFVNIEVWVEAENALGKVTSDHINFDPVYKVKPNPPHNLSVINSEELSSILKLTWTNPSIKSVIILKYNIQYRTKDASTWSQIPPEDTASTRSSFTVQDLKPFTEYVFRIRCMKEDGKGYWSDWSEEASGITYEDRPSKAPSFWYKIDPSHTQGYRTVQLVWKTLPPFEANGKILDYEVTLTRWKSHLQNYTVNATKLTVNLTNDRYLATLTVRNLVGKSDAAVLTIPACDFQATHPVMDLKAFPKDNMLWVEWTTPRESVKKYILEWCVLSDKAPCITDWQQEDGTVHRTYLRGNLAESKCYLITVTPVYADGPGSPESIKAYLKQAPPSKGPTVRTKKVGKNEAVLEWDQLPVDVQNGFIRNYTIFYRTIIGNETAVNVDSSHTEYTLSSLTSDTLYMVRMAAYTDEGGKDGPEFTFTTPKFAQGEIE

[2] = biological target: T3, Human membrane IL-6R on cells (human, UniProt P08887 20-468); experiment: cell-based or functional assay
T3 sequence (looked up): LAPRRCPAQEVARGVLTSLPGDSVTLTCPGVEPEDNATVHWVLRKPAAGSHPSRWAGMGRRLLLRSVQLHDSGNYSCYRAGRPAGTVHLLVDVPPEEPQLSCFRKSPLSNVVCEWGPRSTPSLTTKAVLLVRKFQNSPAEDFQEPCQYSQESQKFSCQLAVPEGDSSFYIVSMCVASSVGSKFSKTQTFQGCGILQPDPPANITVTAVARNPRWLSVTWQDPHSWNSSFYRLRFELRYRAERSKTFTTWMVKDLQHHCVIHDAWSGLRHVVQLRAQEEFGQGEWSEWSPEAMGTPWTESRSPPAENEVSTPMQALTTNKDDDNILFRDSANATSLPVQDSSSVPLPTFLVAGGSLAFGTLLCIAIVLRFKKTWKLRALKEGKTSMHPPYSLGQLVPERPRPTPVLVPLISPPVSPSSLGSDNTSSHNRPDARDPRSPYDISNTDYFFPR

Cyno IL-6R = biological target: T4, Cyno IL-6R (cynomolgus monkey, UniProt A0A2K5WN54 60-396); experiment: Biacore T100, IL-6R captured by BN-12
T4 construct: also called cynomolgus monkey IL-6R; recombinant cyno sIL-6R
T4 sequence: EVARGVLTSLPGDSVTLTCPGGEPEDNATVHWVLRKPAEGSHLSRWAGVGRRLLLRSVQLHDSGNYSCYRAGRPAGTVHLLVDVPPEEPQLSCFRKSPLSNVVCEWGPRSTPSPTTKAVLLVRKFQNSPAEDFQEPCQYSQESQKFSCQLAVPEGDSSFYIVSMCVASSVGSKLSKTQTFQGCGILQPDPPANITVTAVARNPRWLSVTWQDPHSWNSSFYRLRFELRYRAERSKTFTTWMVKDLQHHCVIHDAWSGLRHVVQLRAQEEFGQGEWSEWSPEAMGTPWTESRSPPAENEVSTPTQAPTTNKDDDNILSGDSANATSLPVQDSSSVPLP

Human soluble IL-6R [3] = biological target: T5, Human soluble IL-6R (human, UniProt P08887 20-358); experiment: Biacore T100, IL-6R captured by BN-12
T5 construct: Soluble recombinant form; biotinylated in some assays; also called hIL-6R; human IL-6R
T5 sequence (looked up): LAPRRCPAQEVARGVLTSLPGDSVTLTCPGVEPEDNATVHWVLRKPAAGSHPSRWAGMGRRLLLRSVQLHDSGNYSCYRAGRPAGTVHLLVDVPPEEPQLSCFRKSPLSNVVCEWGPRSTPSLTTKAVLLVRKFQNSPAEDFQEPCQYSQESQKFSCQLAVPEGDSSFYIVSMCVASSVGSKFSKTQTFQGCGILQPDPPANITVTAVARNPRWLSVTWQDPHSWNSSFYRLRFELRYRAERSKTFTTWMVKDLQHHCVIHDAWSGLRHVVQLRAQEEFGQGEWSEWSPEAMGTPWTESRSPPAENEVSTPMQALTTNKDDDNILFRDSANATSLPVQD

Human soluble IL-6R [4] = biological target: T5, Human soluble IL-6R; experiment: Biacore T100, IL-6R captured via mAb BN-12
Human soluble IL-6R [5] = biological target: T5, Human soluble IL-6R; experiment: Biacore T100, IL-6R covalently coupled
[6] = biological target: T3, Human membrane IL-6R on cells; experiment: flow cytometry, human PBL, monocytes donor 2
Human plasma sIL-6R [7] = biological target: T1, Human plasma sIL-6R; experiment: plasma potency assay, human plasma, 2.4 nM IL6; blocked ligand IL-6

IC50 (Human plasma sIL-6R [1]): 0.356 nM
binding result (gp130/Fc): no binding (tested: 100 nM)
IC50 (nM), TF-1 proliferation at 100 IU/mL IL-6 [2]: 0.283 nM
kon (Cyno IL-6R): 1e+06 M⁻¹ s⁻¹
kon (Human soluble IL-6R [3]): 1e+06 M⁻¹ s⁻¹
kon (Human soluble IL-6R [4]): 1e+06 M⁻¹ s⁻¹
koff (Human soluble IL-6R [5]): 1.9e-05 s⁻¹
EC50 [6]: 4.78 nM
IC50 (Human plasma sIL-6R [7]): 0.09 nM
B1: PMP20A11 (VHH)
VHH: EVQLVESGGGLVQPGGSLRLSCAASGSVFKINVMAWYRQAPGKGRELVAGIISGGSTSYADSVKGRFTISRDNAKNTLYLQMNSLRPEDTAVYYCAFITTESDYDLGRRYWGQGTLVTVSS
notes: also called IL6R20A11; IL6R300; not shown: c-myc and (His)6 tags
